Data taken from US20250109177A1, “EVOLVED PROTEIN DEGRONS” (The Broad Institute, Inc., priority 2022, published 2025).
Where no end group is shown, it is not given here.

Biological target: CRBN of HEK293T cells, with PT-179 (human) (UniProt Q96SW2)
Assay: cell-based or functional assay

Chain of CRBN of HEK293T cells, with PT-179 (human) (Q96SW2 whole entry): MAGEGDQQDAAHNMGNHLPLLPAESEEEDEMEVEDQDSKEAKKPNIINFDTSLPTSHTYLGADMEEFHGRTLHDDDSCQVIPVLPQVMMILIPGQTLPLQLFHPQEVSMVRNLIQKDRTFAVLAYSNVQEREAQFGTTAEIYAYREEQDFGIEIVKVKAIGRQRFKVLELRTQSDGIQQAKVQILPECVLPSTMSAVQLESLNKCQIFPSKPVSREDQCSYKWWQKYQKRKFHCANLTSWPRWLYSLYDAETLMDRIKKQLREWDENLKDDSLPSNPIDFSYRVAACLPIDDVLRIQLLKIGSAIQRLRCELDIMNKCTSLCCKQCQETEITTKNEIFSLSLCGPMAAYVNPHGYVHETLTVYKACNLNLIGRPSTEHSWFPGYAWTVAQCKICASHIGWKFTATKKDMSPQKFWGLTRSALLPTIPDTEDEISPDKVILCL

Row | Binder | DC50 of PT-179-induced degradation of degron-tagged eGFP in HEK293T cells
1 | SD36-tagged eGFP (degron fused to the N-terminus of eGFP) (designed binder, not shown: large carriers, cysteine pairing not given here) FNVLMVHKRSHTGELLLFCPICGFTCRQKGNLLRHINLHTGEKLFKYHLYNYACQRRDAL-eGFP | 14 nM
2 | LLLFCPICGFTCRQKGNLLRHINLHTGEKLFKYHLY-eGFP (designed binder, not shown: large carriers, cysteine pairing not given here) [SD40-eGFP (degron fused to the N-terminus of eGFP)] | 5 nM
